Columns and labels:
[1] = biological target: T1, S5-Pore peptide; experiment: binding to immobilized antigen (method section: ELISA on plates coated with S5-Pore peptide)
T1 construct: Peptide of the S5-pore extracellular portion of hERG1; also called S5PORO peptide; peptide S5PORO
T1 peptide: EQPHMDSRIGWLHN
Description: To evaluate if the two engineered antibodies, scFv-hERG1-G3 and scFv-hERG1-D8Cys, have still the ability to bind the antigen and afterwards to investigate the different affinity of the two antibodies ELISA assays were performed using plates coated with S5-Pore peptide (sequence: […]), towards which the antibody is directed. This peptide is the same we used to screen anti-hERG1 A7 antibody.

[2] = biological target: T2, hERG1 (human, UniProt Q12809 1-1159); experiment: immunofluorescence on fixed and live HEK293-hERG1 cells, intensity by ImageJ
T2 construct: whole, on cells; also called human ether-a-go-go-related gene 1 potassium channel; hERG1 antigen
Description: Then an immunofluorescence analysis was performed using scFv-hERG1-G3 and scFv-hERG1-D8Cys on fixed cells, to determine the immunoreactivity of the two antibodies. […] Data analysis obtained using ImageJ Software is reported in the graphs reported in panel C.
Cells were seeded O/N on glass coverslips and then washed once with PBS and fixed with 4% paraformaldeide for 20 min at room temperature. Blocking was performed with 10% BSA for 2 h at room temperature. Antibody incubation was performed using scFv-hERG1-G3, scFv-hERG1-D8Cys, diluted 1:20 in blocking solution and incubated for 2 and half hours, followed by anti-His (1:250; Abcam) O/N incubation in blocking solution. The following day, cells were washed three times with PBS and incubated with anti-mouse Alexa488 antibody (Invitrogen) for 1 h. Whereas, scFv-hERG1-G3-Alexa488 and scFv-hERG1-D8Cys-Alexa488, diluted 1:20 in blocking solution, were incubated O/N at 4° C.
Cells were grown O/N on 60 mm plates (Sarstedt) using an agarose (15 g/L) ring in order to isolate cells and minimize the volumes of reagents needed for incubations. Cells were incubated with scFv-hERG1-G3-Alexa488 and scFv-hERG1-D8Cys-Alexa488 diluted 1:20 in complete culture medium in a 37° C. incubator with 5% C02 for 4 h. Rivelation was performed using Hoechst, as previously described. Cells were visualized on a inverted light microscopy (Nikon, Eclipse TE300).

[3] = biological target: T2, hERG1; experiment: cell-based or functional assay

T2 sequence (Q12809 whole entry): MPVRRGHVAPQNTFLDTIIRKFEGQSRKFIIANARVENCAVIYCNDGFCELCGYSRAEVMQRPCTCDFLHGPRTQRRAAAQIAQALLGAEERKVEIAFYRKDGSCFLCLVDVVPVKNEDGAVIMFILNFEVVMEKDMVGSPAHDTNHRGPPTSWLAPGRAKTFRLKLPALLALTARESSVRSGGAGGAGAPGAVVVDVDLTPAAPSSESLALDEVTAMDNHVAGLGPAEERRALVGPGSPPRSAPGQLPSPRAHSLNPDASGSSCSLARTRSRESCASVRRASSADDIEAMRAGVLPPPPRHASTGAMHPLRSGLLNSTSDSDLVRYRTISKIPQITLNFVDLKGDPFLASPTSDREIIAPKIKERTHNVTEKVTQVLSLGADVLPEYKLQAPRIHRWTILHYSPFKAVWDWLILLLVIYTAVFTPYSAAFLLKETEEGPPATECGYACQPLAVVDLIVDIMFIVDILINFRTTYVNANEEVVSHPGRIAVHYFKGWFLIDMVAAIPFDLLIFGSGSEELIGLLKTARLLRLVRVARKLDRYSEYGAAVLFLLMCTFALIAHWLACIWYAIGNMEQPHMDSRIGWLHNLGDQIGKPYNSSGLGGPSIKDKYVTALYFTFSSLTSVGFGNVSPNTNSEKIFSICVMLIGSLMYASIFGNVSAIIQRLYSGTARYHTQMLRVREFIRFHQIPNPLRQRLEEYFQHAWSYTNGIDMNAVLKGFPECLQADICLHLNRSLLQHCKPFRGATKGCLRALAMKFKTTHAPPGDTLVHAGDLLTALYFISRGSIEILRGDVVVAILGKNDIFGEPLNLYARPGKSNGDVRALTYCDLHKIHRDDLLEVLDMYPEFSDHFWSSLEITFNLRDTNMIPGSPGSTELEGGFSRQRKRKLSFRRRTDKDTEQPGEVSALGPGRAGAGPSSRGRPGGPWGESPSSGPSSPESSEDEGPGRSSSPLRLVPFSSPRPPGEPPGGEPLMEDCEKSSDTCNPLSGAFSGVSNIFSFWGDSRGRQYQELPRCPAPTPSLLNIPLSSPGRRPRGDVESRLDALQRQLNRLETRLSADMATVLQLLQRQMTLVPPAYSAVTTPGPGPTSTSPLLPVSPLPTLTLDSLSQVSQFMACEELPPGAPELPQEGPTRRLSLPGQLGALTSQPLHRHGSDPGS

B1: scFv-hERG1-D8Cys (scFv)
scFv: EVQLQQSGPELVKPGASVKISCKTSGYTFTEYTVHWVKQSHGKSLEWIGGINPNGGTTYNQKFKGKATLTIDKSSSSAFMELRSLTSEDSAVYYCATGWGPDYWGQGTTLTVSSAKTTPPSVYPLAPGSSGGGGSGGGGSGGSALDIVLTQSPLTLSVNIGQPASISCKSSQSLLYTNGKTYFNWLLQRPGQSPKRLIYLVSKLDSGVPDRFTGSGSGTDFTLKISRVEAEDLGVYYCAQGTHFPWTFGGGTKLEIKRADAAPTVSAAAEQKLISEEDLNGAA
notes: Clone D8, expressed in Pichia pastoris from pPIC9K with a 6xHis tag; Also tested after conjugation with Alexa 488; also called scFv-hERG1-Cys; anti-hERG1-Cys scFv
B1: binds [1]; binds [2].

B2: scDb-hERG1-Cys-β1 (bispecific antibody)
chain: EAECADEVQLQQSGPELVKPGASVKISCKTSGYTFTEYTVHWVKQSHGKSLEWIGGINPNGGTTYNQKFKGKATLTIDKSSSSAFMELRSLTSEDSAVYYCATGWGPDYWGQGTTLTVSSAKTTPPSVYPLAPGSSDIVMTQTPTTMAASPGDKITITCSVSSIISSNYLHWYSQKPGFSPKLLIYRTSNLASGVPPRFSGSGSGTSYSLTIGTMEAEDVATYYCQQGSDIPLTFGDGTKLDLKRADAAPTVSGGGGSGGGGSGGGGSGGGGSEVKVVESGGGLVKPGGSLKLSCAASGFTFSSYTMSWVRQTPEKRLEWVATISSGGSYTYYPDSVKGRFTISRDKAKNTLYLQMGSLKSEDTAMYYCTRIGYDEDYAMDHWGQGTSVTVSSAKTTPPSVYSALDIVLTQSPLTLSVNIGQPASISCKSSQSLLYTNGKTYFNWLLQRPGQSPKRLIYLVSKLDSGVPDRFTGSGSGTDFTLKISRVEAEDLGVYYCAQGTHFPWTFGGGTKLEIKRADAAPTVSAAAEQKLISEEDLNGAPRHHHHHHHH
With B2 the “IC50, cell viability of MDA-MB 231 cells” value [3] was 42 µg/mL and the “IC50, cell viability of PANC-1 cells” value [3] was 24 µg/mL.
